Data as given in patent US8309097 (VERENIGING VOOR CHRISTELIJK WETENSCHAPPELIJK ONDERWIJS, dated 2012).
Substitutions are numbered along the chain they refer to. Numbers in names are those of the source. Where two headings read alike, the source gives them in different places.

Experiments:
[1] = molecular target: T1, ICAM-3 coated on fluorescent beads (UniProt P32942 30-485)
T1 sequence: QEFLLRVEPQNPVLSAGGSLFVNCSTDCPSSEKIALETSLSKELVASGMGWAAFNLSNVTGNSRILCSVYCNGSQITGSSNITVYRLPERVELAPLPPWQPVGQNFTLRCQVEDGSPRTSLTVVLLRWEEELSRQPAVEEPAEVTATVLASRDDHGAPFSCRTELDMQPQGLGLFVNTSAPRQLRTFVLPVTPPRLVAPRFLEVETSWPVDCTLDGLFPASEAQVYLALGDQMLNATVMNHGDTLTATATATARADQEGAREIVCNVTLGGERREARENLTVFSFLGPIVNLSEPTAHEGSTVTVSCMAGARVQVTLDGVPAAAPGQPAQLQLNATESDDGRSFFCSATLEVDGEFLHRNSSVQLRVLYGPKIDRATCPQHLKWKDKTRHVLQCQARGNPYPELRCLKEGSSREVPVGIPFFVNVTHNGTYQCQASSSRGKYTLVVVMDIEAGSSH

ICAM-3-Fc = molecular target: T2, ICAM-3-Fc (UniProt P32942 30-485); experiment: beads coated with ICAM-3-Fc, immature DC and K562-DC-SIGN
T2 construct: also called pIG-ICAM-3-Fc product; Fc chimera of ICAM-3
T2 sequence (looked up): T1 sequence

[2] = molecular target: T1, ICAM-3 coated on fluorescent beads; experiment: fluorescent bead adhesion assay, K562 transfectants
ICAM-3 from granulocytes = molecular target: T3, ICAM-3 from granulocytes (UniProt P32942 30-547); experiment: ELISA: ICAM-3 captured from granulocyte lysate by coated antibody, DC-SIGN-Fc added (FIG. 22C)
T3 construct: also called ICAM-3 captured or immunoprecipitated from granulocyte lysate
T3 sequence (looked up): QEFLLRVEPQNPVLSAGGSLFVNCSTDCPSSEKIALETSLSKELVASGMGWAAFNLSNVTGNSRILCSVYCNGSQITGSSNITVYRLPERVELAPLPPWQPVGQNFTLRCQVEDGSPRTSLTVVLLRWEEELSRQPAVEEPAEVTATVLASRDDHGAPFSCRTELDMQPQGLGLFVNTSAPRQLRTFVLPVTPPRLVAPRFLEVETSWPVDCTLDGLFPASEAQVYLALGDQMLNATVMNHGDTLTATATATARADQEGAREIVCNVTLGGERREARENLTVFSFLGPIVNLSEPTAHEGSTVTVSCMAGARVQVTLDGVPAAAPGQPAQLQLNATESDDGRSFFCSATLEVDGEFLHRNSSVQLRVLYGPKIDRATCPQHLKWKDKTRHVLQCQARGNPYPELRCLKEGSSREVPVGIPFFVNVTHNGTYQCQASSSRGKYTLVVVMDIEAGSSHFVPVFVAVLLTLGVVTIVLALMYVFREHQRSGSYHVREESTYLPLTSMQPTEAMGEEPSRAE

B1: DC-SIGN (CD209), wild type, expressed on K562 transfectants or immature dendritic cells (receptor, human, UniProt Q9NNX6 1-404, looked up)
chain: MSDSKEPRLQQLGLLEEEQLRGLGFRQTRGYKSLAGCLGHGPLVLQLLSFTLLAGLLVQVSKVPSSISQEQSRQDAIYQNLTQLKAAVGELSEKSKLQEIYQELTQLKAAVGELPEKSKLQEIYQELTRLKAAVGELPEKSKLQEIYQELTWLKAAVGELPEKSKMQEIYQELTRLKAAVGELPEKSKQQEIYQELTRLKAAVGELPEKSKQQEIYQELTRLKAAVGELPEKSKQQEIYQELTQLKAAVERLCHPCPWEWTFFQGNCYFMSNSQRNWHDSITACKEVGAQLVVIKSAEEQNFLQLQSSRSNRFTWMGLSDLNQEGTWQWVDGSPLLPSFKQYWNRGEPNNVGEEDCAEFSGNGWNDDKCNLAKFWICKKSAASCSRDEEQFLSPAPATPNPPPA
notes: whole, on cells; also called cellular DC-SIGN; K562-DC-SIGN
B1: binds [1]; binds (ICAM-3-Fc).

B2: DC-SIGN E347Q mutant expressed by K562 cells (receptor)
chain: B1 chain with E347Q
notes: whole, on cells
B2: no binding [2].

B3: DC-SIGN-Fc (Fc fusion, human, UniProt Q9NNX6 64-404, looked up, not shown: a dimerising Fc or GST)
chain: PSSISQEQSRQDAIYQNLTQLKAAVGELSEKSKLQEIYQELTQLKAAVGELPEKSKLQEIYQELTRLKAAVGELPEKSKLQEIYQELTWLKAAVGELPEKSKMQEIYQELTRLKAAVGELPEKSKQQEIYQELTRLKAAVGELPEKSKQQEIYQELTRLKAAVGELPEKSKQQEIYQELTQLKAAVERLCHPCPWEWTFFQGNCYFMSNSQRNWHDSITACKEVGAQLVVIKSAEEQNFLQLQSSRSNRFTWMGLSDLNQEGTWQWVDGSPLLPSFKQYWNRGEPNNVGEEDCAEFSGNGWNDDKCNLAKFWICKKSAASCSRDEEQFLSPAPATPNPPPA
notes: range 64-404; also called soluble DC-SIGN-Fc; DC-SIGN-Fe
B3: no binding (ICAM-3 from granulocytes).
